Columns and labels:
Assay in all cases: ITC
[1] = molecular target: wild-type mouse Rbpj core (residues 53-474) (mouse, UniProt P31266 53-474)
[2] = molecular target: mouse Rbpj core (residues 53-474) F92V variant (mouse, UniProt P31266 53-474, F92V)
[3] = molecular target: mouse Rbpj core (residues 53-474) R91G variant (mouse, UniProt P31266 53-474, R91G)
[4] = molecular target: mouse Rbpj core (residues 53-474) S358R variant (mouse, UniProt P31266 53-474, S358R)

Measured: binding result

mouse Rbpj core (residues 53-474) S358R variant, sequence (P31266 53-474 S358R): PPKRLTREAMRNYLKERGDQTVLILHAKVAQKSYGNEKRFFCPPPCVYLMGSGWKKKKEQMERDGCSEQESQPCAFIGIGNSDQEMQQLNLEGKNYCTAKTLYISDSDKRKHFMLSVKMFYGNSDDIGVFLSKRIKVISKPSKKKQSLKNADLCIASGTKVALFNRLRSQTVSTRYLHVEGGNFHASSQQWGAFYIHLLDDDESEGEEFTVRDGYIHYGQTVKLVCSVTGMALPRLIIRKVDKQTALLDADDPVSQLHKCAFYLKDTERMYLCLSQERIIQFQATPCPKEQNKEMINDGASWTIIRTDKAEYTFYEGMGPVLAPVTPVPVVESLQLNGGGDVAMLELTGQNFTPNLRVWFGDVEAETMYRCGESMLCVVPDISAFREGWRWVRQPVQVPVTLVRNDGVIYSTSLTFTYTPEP
wild-type mouse Rbpj core (residues 53-474), sequence (P31266 53-474): as the sequence (P31266 53-474 S358R) above, with R306S counted along it
mouse Rbpj core (residues 53-474) F92V variant, sequence (P31266 53-474 F92V): as the sequence (P31266 53-474 S358R) above, with F40V, R306S counted along it
mouse Rbpj core (residues 53-474) R91G variant, sequence (P31266 53-474 R91G): as the sequence (P31266 53-474 S358R) above, with R39G, R306S counted along it

VLLSRKRRRQHGQLWFPEGFKVSEASKK [peptide consisting of residues 1754-1781 of human NOTCH1]
binds: all assays above

B1: human SHARP residues 2776-2833 (domain or fragment)
chain: RASANENSRFHPGSMPVIDDRPADAGSGAGLRVNTSEGVVLLSYSGQKTEGPQRISAK
binds: [1] | [2] | [4]

From article doi:10.1101/2025.03.20.644338 (bioRxiv, 2025)
